# Results: patent publication US20090130760A1 (ST MARIANNA UNIVERSITY SCHOOL OF MEDICINE, published 2009)
# Target: T1, GST (UniProt P08515 1-218 = GST)
# T1 construct: Control of the GST pull-down
# Test: GST pull-down on glutathione-agarose beads, SDS-PAGE and Sypro Ruby stain
# Protocol: The proteins bound to the beads were separated by SDS-PAGE and stained with Sypro Ruby.
# Four micrograms of the GST fusion protein was mixed with 4 μg of His-BARD1¹⁴⁻¹⁸⁹ and 25 μl of glutathione-agarose beads in 1 ml of a buffer containing 50 mM Tris-HCl (pH 7.5), 0.5% NP-40, 150 mM NaCl, 50 mM NaF and 1 mM dithiothreitol. After rotation at 4° C. for 2 hours, GST fusion proteins bound to glutathione-agarose beads were washed three times and subsequently eluted with SDS-PAGE loading buffer.
# T1 sequence (P08515 whole entry): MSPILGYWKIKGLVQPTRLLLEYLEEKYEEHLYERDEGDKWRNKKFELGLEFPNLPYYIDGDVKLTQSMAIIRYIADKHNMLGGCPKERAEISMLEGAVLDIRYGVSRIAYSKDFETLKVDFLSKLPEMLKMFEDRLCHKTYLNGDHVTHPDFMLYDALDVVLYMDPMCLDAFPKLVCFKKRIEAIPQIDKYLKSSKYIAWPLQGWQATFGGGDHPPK
binder,measurement,value
"His-BARD1^14-189 (other, Bacterially expressed recombinant protein; not shown: His tag) IRSGNEPRSAPAMEPDGRGAWAHSRAALDRLEKLLRCSRCTNILREPVCLGGCEHIFCSNCVSDCIGTGCPVCYTPAWIQDLKINRQLDSMIQLCSKLRNLLHDNELSDLKEDKPRKSLFNDAGNKKNSIKMWFSPRSKKVRYVVSKASVQTQPAIKKDASAQQDSYEFVSPSPPA",binding result,no binding (tested: 4 µg of each protein in 1 ml)
